# In patent US20090036380A1, “Composition And Method For Brain Tumor Therapy” (Yeda Research and Development Co., Ltd., priority 2006, published 2009):
# Biological target: EGFR-Flag (UniProt P00533)
# Assay: cell-based or functional assay
# HA-Karet (full-length mouse Karet with N-terminal haemagglutinin tag), sequence (Q8K2Y9 whole entry): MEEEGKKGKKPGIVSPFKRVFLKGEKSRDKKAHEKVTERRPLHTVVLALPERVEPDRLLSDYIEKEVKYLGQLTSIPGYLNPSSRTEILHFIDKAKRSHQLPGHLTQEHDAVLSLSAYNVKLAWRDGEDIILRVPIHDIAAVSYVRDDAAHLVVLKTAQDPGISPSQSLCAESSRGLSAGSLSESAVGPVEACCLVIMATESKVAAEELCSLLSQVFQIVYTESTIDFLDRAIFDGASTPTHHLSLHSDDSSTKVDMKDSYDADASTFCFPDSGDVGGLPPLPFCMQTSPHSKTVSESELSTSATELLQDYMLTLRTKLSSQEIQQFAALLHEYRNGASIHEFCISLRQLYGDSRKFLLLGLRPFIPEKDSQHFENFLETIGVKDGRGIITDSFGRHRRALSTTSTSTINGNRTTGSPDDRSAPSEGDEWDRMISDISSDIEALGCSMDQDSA
substance,measurement,value
HA-Karet (full-length mouse Karet with N-terminal haemagglutinin tag) (from UniProt Q8K2Y9 1-453),"decrease in cell viability, Hek cells co-transfected with EGFR and Karet (XTT)",40%
